Assay results taken from PMC8523169, “Competitive binding of MatP and topoisomerase IV to the MukB hinge domain” (eLife, 2021).

Experiments:
[1] = biological target: the molecule itself; assay: native MS; proteins buffer exchanged into 200 mM ammonium acetate pH 8.0, alone or mixed in different ratios (two or three components, with or without 50 bp DNA), 10 min on ice
[2] = biological target: T1, full-length ParC, N-terminal 6xHis-tag (E. coli, UniProt P0AFI2 1-752); assay: ITC; 100 µM LH titrated into 10 µM ParC at 25 °C; one-site model; three repeats; conditions: both partners purified
T1 construct: ParC subunit of topoisomerase IV, E. coli, full length; also called His-ParC; ParC2; source: overexpressed, purified as previously published (Nolivos et al., 2016) with an added SEC step; not shown: His6, N-terminal, kept
T1 sequence (looked up): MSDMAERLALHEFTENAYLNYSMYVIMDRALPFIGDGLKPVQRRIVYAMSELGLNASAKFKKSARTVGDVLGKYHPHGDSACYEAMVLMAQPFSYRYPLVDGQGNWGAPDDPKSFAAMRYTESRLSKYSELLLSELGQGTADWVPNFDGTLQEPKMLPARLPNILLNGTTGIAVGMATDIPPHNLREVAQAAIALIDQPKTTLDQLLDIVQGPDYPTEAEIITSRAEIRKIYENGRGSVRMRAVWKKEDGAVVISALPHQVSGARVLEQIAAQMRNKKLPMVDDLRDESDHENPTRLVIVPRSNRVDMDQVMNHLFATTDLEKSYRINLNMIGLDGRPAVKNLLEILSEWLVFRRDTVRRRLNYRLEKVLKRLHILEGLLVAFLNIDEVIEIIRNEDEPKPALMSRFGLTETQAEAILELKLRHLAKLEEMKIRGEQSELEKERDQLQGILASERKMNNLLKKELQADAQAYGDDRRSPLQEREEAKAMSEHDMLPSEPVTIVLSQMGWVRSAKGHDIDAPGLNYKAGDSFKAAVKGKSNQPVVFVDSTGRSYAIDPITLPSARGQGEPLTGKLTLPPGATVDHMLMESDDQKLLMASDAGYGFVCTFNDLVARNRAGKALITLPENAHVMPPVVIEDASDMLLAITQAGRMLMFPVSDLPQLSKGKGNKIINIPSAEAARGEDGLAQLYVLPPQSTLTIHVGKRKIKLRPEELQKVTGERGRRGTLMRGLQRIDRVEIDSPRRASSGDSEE

[3] = biological target: T1, full-length ParC, N-terminal 6xHis-tag; assay: native MS; proteins buffer exchanged into 200 mM ammonium acetate pH 8.0, alone or mixed in different ratios (two or three components, with or without 50 bp DNA), 10 min on ice; conditions: both partners purified

B1: MukB long hinge (LH; amino acid residues 568–863) (domain or fragment, E. coli, UniProt P22523 568-863, looked up)
chain: SLSDSVSNAREERMALRQEQEQLQSRIQSLMQRAPVWLAAQNSLNQLSEQCGEEFTSSQDVTEYLQQLLEREREAIVERDEVGARKNAVDEEIERLSQPGGSEDQRLNALAERFGGVLLSEIYDDVSLEDAPYFSALYGPSRHAIVVPDLSQVTEHLEGLTDCPEDLYLIEGDPQSFDDSVFSVDELEKAVVVKIADRQWRYSRFPEVPLFGRAARESRIESLHAEREVLSERFATLSFDVQKTQRLHQAFSRFIGSHLAVAFESDPEAEIRQLNSRRVELERALSNHENDNQQQR
notes: MukB, E. coli, residues 568-863: dimeric globular hinge domain and 20% of the coiled-coil region; also called LH (MBP cleaved); LH2; source: NEBExpress cells (pMAL-c5X), purified (amylose, Factor Xa cleavage, HiTrap Q XL, SEC); not shown: MBP, N-terminal, cleaved
[1]
  stoichiometry N: 2
[2]
  Kd: 690 nM
  dH: -7.48 kcal/mol
  stoichiometry N: 0.84
[3]
  stoichiometry N: 1 LH dimer per ParC dimer
